“And” between values parts separate entries of the source, which are not always exact repeats. Identical values can stand only once.
Molecular target: recombinant MH8SR-tagged PfKelch13^337-726 (Plasmodium falciparum)
Assay: SEC

## recombinant MH8SR-tagged PfKelch13^337-726 (domain or fragment)
  stoichiometry N: 2 and 4
